Literature values as cited in publication PMC13615496.

Target: PYL (Arabidopsis thaliana) (UniProt Q8VZS8)
Chain of UniProt Q8VZS8 (Q8VZS8 2-221): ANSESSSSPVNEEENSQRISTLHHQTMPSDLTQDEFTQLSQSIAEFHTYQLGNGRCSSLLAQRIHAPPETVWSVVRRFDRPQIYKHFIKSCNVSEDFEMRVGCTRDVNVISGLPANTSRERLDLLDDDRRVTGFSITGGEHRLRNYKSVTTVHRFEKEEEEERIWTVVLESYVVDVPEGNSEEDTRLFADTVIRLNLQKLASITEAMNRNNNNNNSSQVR

ABI (from UniProt P49597)
Kd: 52 µM
